Measured values: patent US20220249814A1, “METHODS AND DEVICES FOR TREATING A DISEASE WITH BIOTHERAPEUTICS” (PROGENITY, INC., priority 2018, published 2022)
Marks after values point to notes of the source that are not given here.

What was measured:
[1] = baseline dose, Admin. SC (Table 17); cited from earlier work
[2] = Example 6 dulaglutide plasma pharmacokinetics, ID via 2-nozzle device vs IV vs SC; assay type: in vivo, female Yorkshire pigs (Sus scrofa domesticus)
Excerpt: The study design is shown below in Table 35.
Blood samples were kept on wet ice until centrifugation. […] All samples were maintained chilled throughout processing.

[3] = Example 3 blood insulin pharmacokinetics after SC or intra-jejunal jet delivery; assay type: in vivo, Yorkshire female swine
Experimental: A total of 18 Yorkshire female swine in good health and weighing 60-70 kg each were included in this study. Swine were divided into two groups with 9 animals per group. […] A sham surgical laparotomy was performed. […] The jet delivery device was configured with the single nozzle in an axial orientation.
Swine were divided into two groups with 9 animals per group. […] In all 18 animals, a laparotomy procedure was performed to expose the abdominal cavity. Animals remained under anesthesia during the entire procedure for the PK/PD study.
For the laparotomy in group 02, a small segment of the jejunal mucosa and serosa was exposed by midline laparotomy and the jet delivery device was inserted through antimesenteric incision.
(§1) Blood samples were kept on wet ice until centrifugation and separation of plasma. […] Glucose was monitored every five (5) minutes during the study by portable glucose analyzer (StatStrip (SS) hospital glucose monitoring system (Nova Biomedical, Waltham, Mass.)). At each time point, approximate 0.1 mL of blood was drawn and immediately placed on a glucose monitoring test strip, and the whole blood glucose concentration was measured by the SS in triplicate.
The animals were anesthetized for the entire ECP.

[4] = Example 3 euglycemic clamp pharmacodynamics (blood glucose, dextrose infusion rate); assay type: in vivo, Yorkshire female swine
Experimental: as §1
A euglycemic clamp procedure (ECP) was employed to compare pharmacokinetics and pharmacodynamics of regular human Insulin (NOVOLIN® R) delivered subcutaneously (SC) in the neck versus intra-jejunally (IJ) by the jet delivery device in the small intestine. ECP was used to quantify the amount of glucose required to maintain normoglycemia after exogenous bolus of insulin. […] The animals were anesthetized for the entire ECP.

[5] = ID via ingestible device, 320 psig
[6] = IJ administration by jet delivery device (~40 U), Average of animals
[7] = IJ administration by jet delivery device (~40 U), animal 18P17
[8] = IJ administration by jet delivery device (~40 U), animal 18P22
[9] = IJ administration by jet delivery device (~40 U), animal 18P23
[10] = IJ administration by jet delivery device (~40 U), animal 18P25
[11] = IJ administration by jet delivery device (~40 U), animal 18P28
[12] = IJ administration by jet delivery device (~40 U), animal 18P33
[13] = IJ administration by jet delivery device (~40 U), animal 18P36
[14] = SC administration, animal 18P15
[15] = SC administration, animal 18P16
[16] = SC administration, animal 18P19
[17] = SC administration, animal 18P20
[18] = SC administration, animal 18P34
[19] = SC administration, animal 18P35

Q: With glucagon as the molecule, how does the Bioavail. [1] read?
A: The Bioavail. was 100.0%.

Q: With somatropin as the molecule, how does the Bioavail. [1] read?
A: The Bioavail. was 80.5%.

Q: Which results are given for dulaglutide?
A: Tmax ([2]; ID via 2-nozzle device 320 psig, 1.2 mg, swine plasma): 480 min; (AUC)T0-T240 h ± SEM ([2]; ID via 2-nozzle device 320 psig, 1.2 mg, one animal below detection limit excluded (N=4)): 4355.86 ± 1094.57 ^a ng · hr/mL; bioavailability relative to IV administration [(AUC)ID/IV*100%] [2, 5]: about 33%; bioavailability relative to SC administration [(AUC)ID/SC*100%] [2, 5]: about 61%; AUCID (ng·hr/mL±SEM) ([2]; ID via ingestible device, 320 psig, 1.2 mg, prior to exclusion of animal no. 8487, ±SEM): 3890.00 ± 94.73 ng·h/mL; (AUC)T0-T240 h ± SEM ([2]; IV, 1.2 mg): 16429.33 ± 600.93 ng·h/mL; (AUC)T0-T240 h ± SEM ([2]; SC, 1.2 mg): 8869 ± 887.33 ng·h/mL; plasma level of dulaglutide ([2]; one animal in Group 1 (no. 8487; ID)): below the limit of detection of the ELISA assay

Q: Which results are given for “Novolin® R: regular human insulin (NOVOLIN® R)”?
A: AUC of blood insulin, SC vs IJ group ([3]; AUC0-420 min): higher than that of the IJ administration group; Cmax blood insulin [3, 6]: 77.40 uIU/mL; Tmax blood insulin [3, 6]: 55.63 min; Cmax blood insulin ([3]; IJ administration by jet delivery device (~40 U), animal 18P14): 96.77 uIU/mL; Cmax blood insulin [3, 7]: 5.03 uIU/mL; Tmax blood insulin [3, 7]: 50 min; Cmax blood insulin [3, 8]: 7.96 uIU/mL; Tmax blood insulin [3, 8]: 90 min; Cmax blood insulin [3, 9]: 48.77 uIU/mL; Tmax blood insulin [3, 9]: 40 min; Cmax blood insulin [3, 10]: 40.93 uIU/mL; Tmax blood insulin [3, 10]: 20 min; Cmax blood insulin [3, 11]: 85.38 uIU/mL; Tmax blood insulin [3, 11]: 40 min; Cmax blood insulin [3, 12]: 207.96 uIU/mL; Tmax blood insulin [3, 12]: 40 min; Cmax blood insulin [3, 13]: 126.39 uIU/mL; Tmax blood insulin [3, 13]: 90 min; Cmax blood insulin [3, 14]: 451.00 uIU/mL; Tmax blood insulin [3, 14]: 50 min; Cmax blood insulin [3, 15]: 60.74 uIU/mL; Tmax blood insulin [3, 15]: 180 min; Cmax blood insulin [3, 16]: 354.00 uIU/mL; Tmax blood insulin [3, 16]: 105 min; Cmax blood insulin [3, 17]: 356.60 uIU/mL; Tmax blood insulin [3, 17]: 30 min; Cmax blood insulin ([3]; SC administration, animal 18P21): 65.71 uIU/mL; Cmax blood insulin [3, 18]: 59.18 uIU/mL; Tmax blood insulin [3, 18]: 120 min; Cmax blood insulin [3, 19]: 73.34 uIU/mL; Tmax blood insulin [3, 19]: 50 min; maximum plasma concentration Cmax, SC vs IJ group ([3]; in vivo, sc): higher than that of the IJ administration group; mean dextrose infusion rate, IJ vs SC group ([4]; first 70 minutes after administration): higher in the IJ administration group; mean dextrose infusion rate, IJ vs SC group ([4]; from 75 minutes to 420 minutes post-administration): higher in the SC administration group

B1: concizumab (antibody, chains of the INN, looked up, V domains shown)
VH: EVQLVESGGGLVKPGGSLRLSCAASGFTFSNYAMSWVRQTPEKRLEWVATISRSGSYSYFPDSVQGRFTISRDNAKNSLYLQMNSLRAEDTAVYYCARLGGYDEGDAMDSWGQGTTVTVSS
VL: DIVMTQTPLSLSVTPGQPASISCKSSQSLLESDGKTYLNWYLQKPGQSPQLLIYLVSILDSGVPDRFSGSGSGTDFTLKISRVEAEDVGVYYCLQATHFPQTFGGGTKVEIK
Q: Which Bioavail. [1] does the source give for B1 here?
A: The Bioavail. was 93.0%.
